B1: Ribonuclease, P00648 (parent)
chain: MMKMEGIALKKRLSWISVCLLVLVSAAGMLFSTAAKTETSSHKAHTEAQVINTFDGVADYLQTYHKLPDNYITKSEAQALGWVASKGNLADVAPGKSIGGDIFSNREGKLPGKSGRTWREADINYTSGFRNSDRILYSSDWLIYKTTDHYQTFTKIR

Variants of: B1
Conditions: Bacillus amyloliquefaciens, pH 6.3, 25 °C, Urea, MES 100 mM, reversible: yes, structure 1BNI, whole UniProt chain shown

Row | Variant | ddG of mutation (higher = less stable) (Fluorescence) | denaturant m value (Fluorescence) | denaturant midpoint (higher = more stable) (Fluorescence) | ddG of mutation (higher = less stable) (CD) | denaturant m value (CD) | denaturant midpoint (higher = more stable) (CD)
1 | MMKMEGIALKKRLSWISVCLLVLVSAAGMLFSTAAKTETSSHKAHTEAQVINTFDGVADYLQTYHKLPDNYITKSEAQALGWVASKGNLADVAPGKSIGGDIFSNREGKLPGKSGRTWREADINYTSGFKNSDRILYSSDWLIYKTTDHYQTFTKIR [R130K] | 4.13 kcal/mol | 1.68 kcal/mol/M | 2.43 M |  |  | 
2 | MMKMEGIALKKRLSWISVCLLVLVSAAGMLFSTAAKTETSSHKAHTEAQVINTFDGVADYLQTYHKLPDNYITKSEAQALGWVASKGNLADVAPGKSIGGDIFSNREGKLPGKSGRTWREADINYTSGFQNSDRILYSSDWLIYKTTDHYQTFTKIR [R130Q] | 2.05 kcal/mol | 2.28 kcal/mol/M | 3.51 M |  |  | 
3 | MMKMEGIALKKRLSWISVCLLVLVSAAGMLFSTAAKTETSSHKAHTEAQVINTFDGVADYLQTYHKLPDNYITKSEAQALGWVASKGNLADVAPGKSIGGDIFSNREGKLPGKSGKTWREADINYTSGFRNSDRILYSSDWLIYKTTDHYQTFTKIR [R116K] |  |  |  | 3.13 kcal/mol | 1.89 kcal/mol/M | 2.94 M
4 | MMKMEGIALKKRLSWISVCLLVLVSAAGMLFSTAAKTETSSHKAHTEAQVINTFDGVADYLQTYHKLPDNYITKSEAQALGWVASKGNLADVAPGKSIGGDIFSNREGKLPGKSGMTWREADINYTSGFRNSDRILYSSDWLIYKTTDHYQTFTKIR [R116M] | 2.12 kcal/mol | 2.14 kcal/mol/M | 3.47 M |  |  | 
5 | MMKMEGIALKKRLSWISVCLLVLVSAAGMLFSTAAKTETSSHKAHTEAQVINTFDGVADYLQTYHKLPDNYITKSEAQALGWVASKGNLADVAPGKSIGGDIFSNREGKLPGKSGSTWREADINYTSGFRNSDRILYSSDWLIYKTTDHYQTFTKIR [R116S] | 2.72 kcal/mol | 1.86 kcal/mol/M | 3.16 M |  |  | 
6 | MMKMEGIALKKRLSWISVCLLVLVSAAGMLFSTAAKTETSSHKAHTEAQVINTFDGVADYLQTYHKLPDNYITKSEAQALGWVASKGNLADVAPGKSIGGDIFSNREGKLPGKSGRTWREANINYTSGFRNSDRILYSSDWLIYKTTDHYQTFTKIR [D122N] | 4.8 kcal/mol | 1.69 kcal/mol/M | 2.08 M |  |  | 
7 | MMKMEGIALKKRLSWISVCLLVLVSAAGMLFSTAAKTETSSHKAHTEAQVINTFDGVADYLQTYHKLPDNYITKSEAQALGWVASKGNLADVAPGKSIGGDIFSNREGKLPGKSGRTWREADINYTSGFRNSDRILYSSNWLIYKTTDHYQTFTKIR [D140N] | 4.11 kcal/mol | 1.99 kcal/mol/M | 2.44 M |  |  | 

Source: FireProtDB (doi:10.1021/bi952930e)
